Data published in article PMC4539596, “Three-dimensional electron microscopy reconstruction and cysteine-mediated crosslinking provide a model of the type III secretion system needle tip complex” (Molecular Microbiology, 2014).

Tests used:
[1] = target: MxiH (Shigella flexneri) (UniProt P0A223); test: avidin labelling with negative-stain EM; needle complexes with biotinylated Avitag proteins held on Ni-NTA beads by His6-MxiG, avidin in 300 to 500 molar excess overnight at 4°C, washed, eluted, negative stain; avidin counted on the needle tips
[2] = target: IpaD_avitag (Shigella flexneri) (UniProt P18013); test: as above
[3] = target: IpaD (Shigella flexneri) (UniProt P18013); test: negative-stain EM three-dimensional reconstruction; tip complex and needle of needle complexes purified on Ni-NTA by His6-MxiG from mxiH mutant strains (Q51A, P44A, P44A+Q51A), 21-24 Å; Q51A map refined to 19 Å; complex assembled on the bacteria
[4] = target: IpaD (Shigella flexneri) (UniProt P18013); test: negative-stain EM three-dimensional reconstruction; tip complex and needle of purified needle complexes from the wild-type strain; the half of the images with the lower cross-correlation to the ΔipaB map, 24 Å; complex assembled on the bacteria
[5] = target: IpaB (Shigella flexneri); test: avidin labelling with negative-stain EM; needle complexes with biotinylated Avitag proteins held on Ni-NTA beads by His6-MxiG, avidin in 300 to 500 molar excess overnight at 4°C, washed, eluted, negative stain; avidin counted on the needle tips
[6] = target: IpaD (Shigella flexneri) (UniProt P18013); test: negative-stain EM three-dimensional reconstruction; tip complex and needle of purified needle complexes from the ΔipaB strain; single particle and helical image analysis, 25 Å; complex assembled on the bacteria
[7] = target: the molecule itself; test: cross-linking; bacteria of otherwise wild-type background treated with 30 uM BM(PEG)2, quenched; crudely purified needle complexes, Western blot with anti-IpaD and anti-IpaB; no bands with the oxidiser; pattern unchanged on addition of Congo red

Chain of MxiH (Shigella flexneri) (P0A223 whole entry): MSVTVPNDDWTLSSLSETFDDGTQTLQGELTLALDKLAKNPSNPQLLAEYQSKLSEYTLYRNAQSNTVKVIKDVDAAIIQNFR

Molecule “IpaD_avitag (from UniProt P18013 1-332) (natural protein)” has a percent of needle tips labelled with at least one avidin [1] of 25% and a stoichiometry N [2] of 4.

Molecule IpaB_avitag (natural protein) has a percent of needle tips labelled with at least one avidin [1] of 2.5%.

For “IpaD (from UniProt P18013 1-332) (natural protein)”, the stoichiometry N [3] was 4, the stoichiometry N [4] was 4 and the stoichiometry N [5] was 4. The stoichiometry N [6] was 5.

B1: IpaD C322S/S173C/K258C (natural protein)
chain: MNITTLTNSISTSSFSPNNTNGSSTETVNSDIKTTTSSHPVSSLTMLNDTLHNIRTTNQALKKELSQKTLTKTSLEEIALHSSQISMDVNKSAQLLDILSRNEYPINKDARELLHSAPKEAELDGDQMISHRELWAKIANSINDINEQYLKVYEHAVSSYTQMYQDFSAVLSCLAGWISPGGNDGNSVKLQVNSLKKALEELKEKYKDKPLYPANNTVSQEQANKWLTELGGTIGKVSQKNGGYVVSINMTPIDNMLCSLDNLGGNGEVVLDNAKYQAWNAGFSAEDETMKNNLQTLVQKYSNANSIFDNLVKVLSSTISSSTDTDKLFLHF
notes: IpaD, Shigella flexneri, with the intrinsic cysteine 322 changed to serine and two cysteines put in (helix α3 and helix α6); also called ipaDS173C/K258C; source: S. flexneri ΔipaD, ΔipaB ΔipaD or ΔmxiH ΔipaD background, from pUC18 ipaD_(C322S); on needle tips, in sheared needles or crudely purified needle complexes
In the case of B1, the “stoichiometry N” value [7] is reported as 5.
